Tests used:
Experiment in all cases: pull-down; 5 µg purified GST or GST-GRF fusion immobilised on BSA-pretreated magnetic glutathione agarose beads (MagneGST) with 0.5% Nonidet-P40 and 10% BSA; incubated with 1 µg purified IFP fusion protein, room temperature, 60 min; five washes with 0.5% Nonidet-P40; eluate read by infrared imaging (700 nm) in microtiter plates, then SDS-PAGE and in-gel detection
Conditions in all cases: both partners purified
GST-GRF1 fusion protein = biological target: T1, GST-GRF1 fusion protein (Arabidopsis thaliana, UniProt P42643 1-267)
T1 construct: GRF1 of Arabidopsis thaliana (AGI At4g09000), open reading frame in pDEST15; Printed size 58 kDa; Gateway attB linker between GST and GRF1; source: E. coli BL21 (DE3) pLysS, purified (GSTrap HP column, Äkta-FPLC); not shown: GST, N-terminal, kept
T1 sequence (looked up): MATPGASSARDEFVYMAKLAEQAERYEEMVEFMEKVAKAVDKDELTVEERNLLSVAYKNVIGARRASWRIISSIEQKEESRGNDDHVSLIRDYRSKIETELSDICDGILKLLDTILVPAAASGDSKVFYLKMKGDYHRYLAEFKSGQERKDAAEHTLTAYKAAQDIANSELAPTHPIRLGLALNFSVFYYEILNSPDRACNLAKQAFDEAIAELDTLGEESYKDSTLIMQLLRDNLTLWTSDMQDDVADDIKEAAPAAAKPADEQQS

GST-GRF2 fusion protein = biological target: T2, GST-GRF2 fusion protein (Arabidopsis thaliana, UniProt Q01525 1-259)
T2 construct: GRF2 of Arabidopsis thaliana (AGI At1g78300), open reading frame in pDEST15; Printed size 57 kDa; Gateway attB linker between GST and GRF2; source: E. coli BL21 (DE3) pLysS, purified (GSTrap HP column, Äkta-FPLC); not shown: GST, N-terminal, kept
T2 sequence (looked up): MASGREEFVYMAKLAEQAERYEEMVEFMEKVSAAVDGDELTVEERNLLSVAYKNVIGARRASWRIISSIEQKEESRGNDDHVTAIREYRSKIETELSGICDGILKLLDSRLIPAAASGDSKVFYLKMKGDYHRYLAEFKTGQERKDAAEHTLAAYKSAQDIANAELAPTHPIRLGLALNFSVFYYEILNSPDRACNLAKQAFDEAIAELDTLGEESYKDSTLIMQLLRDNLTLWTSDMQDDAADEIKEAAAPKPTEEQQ

GST-GRF3 fusion protein = biological target: T3, GST-GRF3 fusion protein (Arabidopsis thaliana, UniProt P42644 1-255)
T3 construct: GRF3 of Arabidopsis thaliana (AGI At5g38480), open reading frame in pDEST15; Printed size 56 kDa; Gateway attB linker between GST and GRF3; source: E. coli BL21 (DE3) pLysS, purified (GSTrap HP column, Äkta-FPLC); not shown: GST, N-terminal, kept
T3 sequence (looked up): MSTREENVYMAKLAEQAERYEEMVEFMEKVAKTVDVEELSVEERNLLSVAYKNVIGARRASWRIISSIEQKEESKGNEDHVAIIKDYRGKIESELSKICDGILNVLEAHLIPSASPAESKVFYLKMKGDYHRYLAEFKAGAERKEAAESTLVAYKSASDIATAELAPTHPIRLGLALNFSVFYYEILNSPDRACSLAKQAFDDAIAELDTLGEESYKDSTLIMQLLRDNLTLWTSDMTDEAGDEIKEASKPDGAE

GST-GRF4 fusion protein = biological target: T4, GST-GRF4 fusion protein (Arabidopsis thaliana, UniProt P46077 1-267)
T4 construct: GRF4 of Arabidopsis thaliana (AGI At1g35160), open reading frame in pDEST15; Printed size 58 kDa; Gateway attB linker between GST and GRF4; source: E. coli BL21 (DE3) pLysS, purified (GSTrap HP column, Äkta-FPLC); not shown: GST, N-terminal, kept
T4 sequence (looked up): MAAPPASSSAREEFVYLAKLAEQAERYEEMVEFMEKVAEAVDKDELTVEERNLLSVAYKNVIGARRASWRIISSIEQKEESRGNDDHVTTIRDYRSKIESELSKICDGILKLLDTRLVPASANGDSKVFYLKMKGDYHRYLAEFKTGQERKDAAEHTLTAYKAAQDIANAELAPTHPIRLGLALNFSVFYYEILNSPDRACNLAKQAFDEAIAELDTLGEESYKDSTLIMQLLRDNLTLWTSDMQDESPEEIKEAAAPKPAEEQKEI

GST-GRF5 fusion protein = biological target: T5, GST-GRF5 fusion protein (Arabidopsis thaliana, UniProt P42645 1-268)
T5 construct: GRF5 of Arabidopsis thaliana (AGI At5g16050), open reading frame in pDEST15; Printed size 58 kDa; Gateway attB linker between GST and GRF5; source: E. coli BL21 (DE3) pLysS, purified (GSTrap HP column, Äkta-FPLC); not shown: GST, N-terminal, kept
T5 sequence (looked up): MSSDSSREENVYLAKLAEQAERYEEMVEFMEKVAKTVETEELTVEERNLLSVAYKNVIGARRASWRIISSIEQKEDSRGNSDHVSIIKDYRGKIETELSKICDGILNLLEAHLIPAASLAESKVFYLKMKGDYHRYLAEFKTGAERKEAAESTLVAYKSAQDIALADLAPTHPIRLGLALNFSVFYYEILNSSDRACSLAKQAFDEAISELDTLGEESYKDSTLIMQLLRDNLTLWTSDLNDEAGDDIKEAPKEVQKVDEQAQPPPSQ

GST-GRF6 fusion protein = biological target: T6, GST-GRF6 fusion protein (Arabidopsis thaliana, UniProt P48349 1-248)
T6 construct: GRF6 of Arabidopsis thaliana (AGI At5g10450), open reading frame in pDEST15; Printed size 56 kDa; Gateway attB linker between GST and GRF6; source: E. coli BL21 (DE3) pLysS, purified (GSTrap HP column, Äkta-FPLC); not shown: GST, N-terminal, kept
T6 sequence (looked up): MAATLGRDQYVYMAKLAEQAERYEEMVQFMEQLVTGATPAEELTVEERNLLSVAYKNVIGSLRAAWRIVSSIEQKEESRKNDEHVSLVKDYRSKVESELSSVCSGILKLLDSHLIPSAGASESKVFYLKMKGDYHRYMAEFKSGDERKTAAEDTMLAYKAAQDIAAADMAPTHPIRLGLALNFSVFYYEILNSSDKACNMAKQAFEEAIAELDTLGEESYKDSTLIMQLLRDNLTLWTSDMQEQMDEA

binding result (GST-GRF1 fusion protein): binds | binding result (GST-GRF2 fusion protein): binds | binding result (GST-GRF3 fusion protein): binds | binding result (GST-GRF4 fusion protein): binds | binding result (GST-GRF5 fusion protein): binds | binding result (GST-GRF6 fusion protein): binds
B1: TPK1(1-79)-TEV-IFP-6xHis fusion protein (domain or fragment, Arabidopsis thaliana, UniProt Q8LBL1 1-79, looked up)
chain: MSSDAARTPLLPTEKIDTMAQDFNLNSRTSSSRKRRLRRSRSAPRGDCMYNDDVKIDEPPPHPSKIPMFSDLNPNLRRV
notes: potassium channel TPK1 of Arabidopsis thaliana (AGI At5g55630), N-terminal cytosolic part, amino acids 1-79; Between TPK1(1-79) and the IFP stand residues from the LIC site and the TEV cleavage site ENLYFQG (LC2 vector: ProteinX-TEV-IFP-6xHis); Printed size 47.6-48 kDa; The IFP moiety carries the chromophore biliverdin (cells grown with hemin); also called TPK1-TEV-IFP-6xHis; …
